{"source": "patent US20230050449A1", "about": "“METHODS FOR TREATING CANCER USING A COMBINATION OF A PD-1 ANTAGONIST, AN ILT4 ANTAGONIST, AND CHEMOTHERAPEUTIC AGENTS” (Merck Sharp & Dohme LLC, priority 2019, published 2023)", "system": "participants with advanced solid tumors", "assay": "Phase 1 open label, multi-arm, multi-center study of MK-4830 as monotherapy or in combination with pembrolizumab (NCT03564691): safety and tolerability", "type": "in vivo, human", "description": "A phase 1 open label, multi-arm, multi-center study of an anti-ILT4 antibody (“MK-4830”) as monotherapy or in combination with pembrolizumab for participants with advanced solid tumors has been ongoing (NCT03564691).\nAt the time of the May 10, 2019 data cutoff, a total of 51 participants had received at least 1 dose of MK-4830. In the ongoing MK-4830 monotherapy phase, MK-4830 monotherapy had reached the maximum planned dose level of 1600 mg. In the ongoing MK-4830 plus pembrolizumab combination phase, MK-4830 dose level had reached a maximum dose of 800 mg.\nThe target dose limiting toxicity (DLT) rate was not reached in any of the cohorts and the maximum tolerated dose (MTD) was not defined.\nThe most common study-drug related AEs in all participants were arthralgia (9.8%), fatigue (9.8%), decreased appetite (7.8%), diarrhea (7.8%), and pruritus (7.8%). There was one episode of transient Grade 3 blood pressure increase at the 1600 mg dose level in the MK-4830 monotherapy cohort. There were no Grade 4 or 5 drug-related AEs or SAEs.", "key": {"[1]": {"conditions": "of the total 51 treated participants, preliminary data"}}, "data": [{"substance": "MK-4830: anti-ILT4 antibody; light chain SEQ ID NO:5, heavy chain SEQ ID NO:10 (Table 4)", "values": [{"measurement": "episodes of transient Grade 3 blood pressure increase", "setting": "1600 mg dose level, MK-4830 monotherapy cohort", "value": "one episode"}, {"measurement": "grade of the majority of drug-related AEs", "setting": "51 treated participants, preliminary data", "value": "Grade 1"}, {"measurement": "Grade 4 or 5 drug-related AEs or SAEs", "setting": "all 51 treated participants", "value": "no"}, {"measurement": "study-drug related AE: arthralgia", "setting": "all participants (51 treated)", "value": 9.8, "unit": "%"}, {"measurement": "study-drug related AE: decreased appetite", "setting": "all participants (51 treated)", "value": 7.8, "unit": "%"}, {"measurement": "study-drug related AE: diarrhea", "setting": "all participants (51 treated)", "value": 7.8, "unit": "%"}, {"measurement": "study-drug related AE: fatigue", "setting": "all participants (51 treated)", "value": 9.8, "unit": "%"}, {"measurement": "study-drug related AE: pruritus", "setting": "all participants (51 treated)", "value": 7.8, "unit": "%"}, {"measurement": "target dose limiting toxicity (DLT) rate", "setting": "any of the cohorts, monotherapy up to 1600 mg, combination with pembrolizumab up to 800 mg, May 10, 2019 data cutoff", "value": "not reached"}, {"measurement": "maximum tolerated dose (MTD)", "setting": "monotherapy up to 1600 mg, combination with pembrolizumab up to 800 mg, May 10, 2019 data cutoff", "value": "not defined"}, {"measurement": "participants with one or more drug-related AEs (number)", "setting": "[1]", "value": 26}, {"measurement": "participants with one or more drug-related AEs (percent)", "setting": "[1]", "value": 51, "unit": "%"}]}]}
